Reference: paper PMC3367187
Read-outs that look alike come from different tables or passages of the source.

Experiments:
Assay in all cases: EMSA
[1] = molecular target: HuRΔH (UniProt Q15717 1-326, del186-242)
[2] = molecular target: T1, HuR (wild type) (UniProt Q15717 1-326)
[3] = molecular target: HuRΔ3 (UniProt Q15717 1-242, del243-326)
[4] = molecular target: T1, HuR (wild type); remark: listed apart in the source

Row | Binder | binding result [1] | binding result [2] | binding result [3] | binding result [4]
1 | HBS_50_MBSp (ssRNA) RNA: GGUAUUUAUUUAUUUAUUUGUUUGUUUGUUUUAUUGCUGUACGAGAGAGUCACUGUGCUGAUGUGGACUCAACAUCUGAUGAGCAACUAUACAACCUACUACCUCAACGUUACACU | binds | binds | binds | 
2 | ΔHBS_20_MBSp (ssRNA) RNA: GGAGGUCCAAAGAGUGAGACUGACUAUACAACCUACUACCUCAACGUUACACU |  |  |  | no binding
3 | HBSMut_20_MBSp (ssRNA) RNA: GGUAUAUAUGUCAUGCAUACGUAUGUGCGUAUCUACUAGGUCCAAAGAGUGAGACUGACUAUACAACCUACUACCUCAACGUUACACU |  |  |  | no binding
